Data: IntAct's records for PubMed 19696174

B1: Age-related maculopathy susceptibility protein 2 (Homo sapiens), P0C7Q2 (parent)
chain: MLRLYPGPMVTEAEGKGGPEMASLSSSVVPVSFISTLRESVLDPGVGGEGASDKQRSKLSLSHSMIPAAKIHTELCLPAFFSPAGTQRRFQQPQHHLTLSIIHTAAR
partner: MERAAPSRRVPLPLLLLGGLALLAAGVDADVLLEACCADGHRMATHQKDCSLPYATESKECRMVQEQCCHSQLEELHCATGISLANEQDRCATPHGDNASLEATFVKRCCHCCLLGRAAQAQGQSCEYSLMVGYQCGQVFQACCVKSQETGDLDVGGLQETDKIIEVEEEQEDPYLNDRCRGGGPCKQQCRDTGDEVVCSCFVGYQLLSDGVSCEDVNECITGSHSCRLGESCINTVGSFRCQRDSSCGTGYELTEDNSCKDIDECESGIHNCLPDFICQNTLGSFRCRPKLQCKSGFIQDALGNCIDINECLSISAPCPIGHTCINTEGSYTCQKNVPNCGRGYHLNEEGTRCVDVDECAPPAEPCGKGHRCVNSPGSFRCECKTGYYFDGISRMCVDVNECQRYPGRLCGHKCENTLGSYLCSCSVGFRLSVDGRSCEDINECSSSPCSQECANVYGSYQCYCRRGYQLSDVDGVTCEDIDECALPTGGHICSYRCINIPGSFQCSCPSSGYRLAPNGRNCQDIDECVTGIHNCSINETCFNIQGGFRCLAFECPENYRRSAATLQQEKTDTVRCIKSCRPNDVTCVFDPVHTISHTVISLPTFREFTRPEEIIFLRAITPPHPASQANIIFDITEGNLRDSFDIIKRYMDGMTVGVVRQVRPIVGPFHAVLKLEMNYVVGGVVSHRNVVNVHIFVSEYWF
B2: Age-related maculopathy susceptibility protein 2 (Homo sapiens), P0C7Q2 (parent)
chain: B1 chain

Experiments:
[1] = variants of: B1; settings: with fbln1_human FBLN1, P23142
[2] = variants of: B2; settings: with psg11_human PSG11, Q9UQ72
psg11_human PSG11, Q9UQ72, sequence (Q9UQ72 whole entry): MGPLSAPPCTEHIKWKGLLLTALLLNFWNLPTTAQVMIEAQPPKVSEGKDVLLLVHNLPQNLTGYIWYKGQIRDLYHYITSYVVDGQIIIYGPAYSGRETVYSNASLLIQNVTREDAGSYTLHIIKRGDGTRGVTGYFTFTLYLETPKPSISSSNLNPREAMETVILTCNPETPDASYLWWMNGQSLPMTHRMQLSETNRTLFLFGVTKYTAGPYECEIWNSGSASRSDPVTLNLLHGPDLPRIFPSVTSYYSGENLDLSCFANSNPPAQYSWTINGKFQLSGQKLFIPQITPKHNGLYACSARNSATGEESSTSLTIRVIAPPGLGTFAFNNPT

[3] = variants of: B2; settings: with co1a1_human COL1A1, P02452
co1a1_human COL1A1, P02452, sequence (P02452 whole entry): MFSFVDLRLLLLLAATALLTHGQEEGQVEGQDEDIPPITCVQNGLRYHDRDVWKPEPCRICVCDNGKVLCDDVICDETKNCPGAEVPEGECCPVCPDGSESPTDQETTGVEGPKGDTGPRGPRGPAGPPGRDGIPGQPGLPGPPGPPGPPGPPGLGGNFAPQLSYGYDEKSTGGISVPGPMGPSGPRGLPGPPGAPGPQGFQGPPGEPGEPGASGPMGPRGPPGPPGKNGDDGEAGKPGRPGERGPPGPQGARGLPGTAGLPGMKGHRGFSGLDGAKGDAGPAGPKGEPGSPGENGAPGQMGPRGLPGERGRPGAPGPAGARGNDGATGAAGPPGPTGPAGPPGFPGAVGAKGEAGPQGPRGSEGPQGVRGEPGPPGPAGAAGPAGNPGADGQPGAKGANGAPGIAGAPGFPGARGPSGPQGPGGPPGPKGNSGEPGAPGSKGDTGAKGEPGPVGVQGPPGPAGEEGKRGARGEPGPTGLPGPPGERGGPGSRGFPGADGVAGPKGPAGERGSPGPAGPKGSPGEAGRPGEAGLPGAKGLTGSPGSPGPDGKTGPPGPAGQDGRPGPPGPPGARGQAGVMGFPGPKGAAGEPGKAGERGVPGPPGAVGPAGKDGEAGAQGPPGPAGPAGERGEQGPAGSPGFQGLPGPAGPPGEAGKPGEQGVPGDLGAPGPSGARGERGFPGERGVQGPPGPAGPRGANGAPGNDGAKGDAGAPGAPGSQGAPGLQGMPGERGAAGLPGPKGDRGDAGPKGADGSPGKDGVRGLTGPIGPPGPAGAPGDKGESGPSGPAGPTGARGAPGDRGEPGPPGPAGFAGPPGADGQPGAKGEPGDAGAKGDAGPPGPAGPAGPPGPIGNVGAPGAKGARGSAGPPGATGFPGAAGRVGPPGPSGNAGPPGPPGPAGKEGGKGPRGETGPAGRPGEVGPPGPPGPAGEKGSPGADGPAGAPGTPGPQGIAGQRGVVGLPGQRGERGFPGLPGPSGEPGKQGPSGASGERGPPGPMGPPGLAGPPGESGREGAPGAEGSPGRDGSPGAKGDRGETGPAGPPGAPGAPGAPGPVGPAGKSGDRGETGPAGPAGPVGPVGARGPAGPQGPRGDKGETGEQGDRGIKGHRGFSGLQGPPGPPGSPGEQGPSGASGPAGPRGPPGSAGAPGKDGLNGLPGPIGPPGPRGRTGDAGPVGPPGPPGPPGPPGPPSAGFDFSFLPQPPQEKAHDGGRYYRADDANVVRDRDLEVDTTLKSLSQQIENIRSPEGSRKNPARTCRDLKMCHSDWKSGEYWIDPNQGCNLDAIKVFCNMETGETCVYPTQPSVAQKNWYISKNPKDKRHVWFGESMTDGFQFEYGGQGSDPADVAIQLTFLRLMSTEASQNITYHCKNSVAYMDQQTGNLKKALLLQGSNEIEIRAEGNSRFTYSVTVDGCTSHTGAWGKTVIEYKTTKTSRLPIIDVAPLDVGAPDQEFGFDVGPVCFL

[4] = variants of: B2; settings: with finc_human FN1, P02751
finc_human FN1, P02751, sequence (P02751 whole entry): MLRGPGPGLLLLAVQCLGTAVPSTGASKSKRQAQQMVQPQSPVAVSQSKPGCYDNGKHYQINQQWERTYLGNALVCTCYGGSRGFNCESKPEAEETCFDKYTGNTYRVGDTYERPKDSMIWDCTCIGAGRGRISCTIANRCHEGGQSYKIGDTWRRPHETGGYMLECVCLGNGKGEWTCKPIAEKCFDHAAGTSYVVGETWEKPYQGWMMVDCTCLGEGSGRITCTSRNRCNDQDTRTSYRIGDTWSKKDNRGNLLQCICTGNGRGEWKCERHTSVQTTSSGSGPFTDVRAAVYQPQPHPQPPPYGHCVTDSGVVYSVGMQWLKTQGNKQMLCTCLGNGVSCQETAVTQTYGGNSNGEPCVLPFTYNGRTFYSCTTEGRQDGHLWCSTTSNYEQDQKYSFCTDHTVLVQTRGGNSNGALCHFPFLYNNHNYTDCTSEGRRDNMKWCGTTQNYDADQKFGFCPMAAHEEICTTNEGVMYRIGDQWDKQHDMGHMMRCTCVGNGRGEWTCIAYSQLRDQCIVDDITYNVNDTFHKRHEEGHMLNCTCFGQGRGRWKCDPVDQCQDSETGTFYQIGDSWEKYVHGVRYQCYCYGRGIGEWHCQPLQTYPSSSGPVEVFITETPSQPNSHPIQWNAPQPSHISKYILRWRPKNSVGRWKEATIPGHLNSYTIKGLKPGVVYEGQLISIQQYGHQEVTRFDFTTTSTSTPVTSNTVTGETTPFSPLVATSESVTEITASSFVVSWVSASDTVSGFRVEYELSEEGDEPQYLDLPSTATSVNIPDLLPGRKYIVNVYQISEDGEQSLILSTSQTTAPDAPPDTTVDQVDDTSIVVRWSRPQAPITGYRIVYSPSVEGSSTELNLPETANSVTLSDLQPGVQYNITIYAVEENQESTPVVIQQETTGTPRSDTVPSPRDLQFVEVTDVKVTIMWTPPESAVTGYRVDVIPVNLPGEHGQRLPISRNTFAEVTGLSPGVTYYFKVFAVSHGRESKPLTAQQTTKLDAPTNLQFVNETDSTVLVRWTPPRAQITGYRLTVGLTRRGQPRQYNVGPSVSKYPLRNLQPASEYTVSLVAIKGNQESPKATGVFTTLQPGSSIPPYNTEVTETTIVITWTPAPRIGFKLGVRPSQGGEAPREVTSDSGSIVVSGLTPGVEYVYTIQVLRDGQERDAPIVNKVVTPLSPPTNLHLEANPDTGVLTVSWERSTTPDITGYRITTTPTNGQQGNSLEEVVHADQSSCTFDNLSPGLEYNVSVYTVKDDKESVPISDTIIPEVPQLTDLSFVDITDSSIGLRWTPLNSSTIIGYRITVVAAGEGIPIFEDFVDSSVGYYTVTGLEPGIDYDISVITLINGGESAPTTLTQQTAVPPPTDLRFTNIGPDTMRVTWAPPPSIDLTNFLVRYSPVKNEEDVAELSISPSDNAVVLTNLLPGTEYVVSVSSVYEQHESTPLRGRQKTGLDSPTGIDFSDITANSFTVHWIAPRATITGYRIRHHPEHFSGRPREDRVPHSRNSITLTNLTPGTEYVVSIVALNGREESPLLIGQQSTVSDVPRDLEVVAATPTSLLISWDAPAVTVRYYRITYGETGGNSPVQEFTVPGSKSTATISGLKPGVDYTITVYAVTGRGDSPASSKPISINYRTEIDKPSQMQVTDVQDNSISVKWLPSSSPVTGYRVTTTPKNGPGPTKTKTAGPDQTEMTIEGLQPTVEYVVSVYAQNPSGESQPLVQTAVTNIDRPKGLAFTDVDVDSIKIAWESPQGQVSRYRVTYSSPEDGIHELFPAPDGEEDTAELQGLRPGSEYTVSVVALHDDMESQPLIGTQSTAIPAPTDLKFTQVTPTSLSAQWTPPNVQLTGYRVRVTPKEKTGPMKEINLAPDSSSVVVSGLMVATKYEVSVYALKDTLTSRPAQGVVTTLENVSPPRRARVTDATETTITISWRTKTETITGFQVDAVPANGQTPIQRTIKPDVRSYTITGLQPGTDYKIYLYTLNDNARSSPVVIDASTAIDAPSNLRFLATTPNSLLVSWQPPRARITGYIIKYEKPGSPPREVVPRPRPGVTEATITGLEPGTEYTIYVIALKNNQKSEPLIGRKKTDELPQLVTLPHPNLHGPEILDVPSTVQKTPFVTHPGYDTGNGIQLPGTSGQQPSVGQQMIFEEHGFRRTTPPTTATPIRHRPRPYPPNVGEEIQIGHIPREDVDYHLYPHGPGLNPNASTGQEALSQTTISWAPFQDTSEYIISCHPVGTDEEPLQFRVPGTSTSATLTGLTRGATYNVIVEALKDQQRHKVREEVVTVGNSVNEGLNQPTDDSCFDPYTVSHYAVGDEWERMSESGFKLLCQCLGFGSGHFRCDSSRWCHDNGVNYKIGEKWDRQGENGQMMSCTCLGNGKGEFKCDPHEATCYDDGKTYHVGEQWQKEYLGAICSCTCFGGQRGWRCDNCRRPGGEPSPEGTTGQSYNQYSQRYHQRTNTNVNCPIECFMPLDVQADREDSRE

[5] = variants of: B2; settings: with co4a2_human COL4A2, P08572
[6] = variants of: B2; settings: with emil2_human EMILIN2, Q9BXX0
[7] = variants of: B2; settings: with hmcn1_human HMCN1, Q96RW7
[8] = variants of: B2; settings: with psg9_human PSG9, Q00887
psg9_human PSG9, Q00887, sequence (Q00887 whole entry): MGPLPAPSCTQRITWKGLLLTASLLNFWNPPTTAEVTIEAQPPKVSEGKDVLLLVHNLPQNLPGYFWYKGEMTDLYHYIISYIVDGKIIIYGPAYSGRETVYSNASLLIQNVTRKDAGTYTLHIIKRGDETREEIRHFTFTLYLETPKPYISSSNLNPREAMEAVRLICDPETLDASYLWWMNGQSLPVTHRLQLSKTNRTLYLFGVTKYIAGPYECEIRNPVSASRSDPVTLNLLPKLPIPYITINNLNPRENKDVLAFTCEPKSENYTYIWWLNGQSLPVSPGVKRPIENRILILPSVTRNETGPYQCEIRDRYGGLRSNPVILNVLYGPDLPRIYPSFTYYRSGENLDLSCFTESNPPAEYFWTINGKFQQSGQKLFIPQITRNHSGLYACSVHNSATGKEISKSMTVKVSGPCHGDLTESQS

Measured: effect of a mutation on the interaction

A69S
with no effect: [1]

A69S
not listed: [1]
with no effect: all other assays above
